Here are results for 15 molecules from publication PMC6733660 (Virology, 2019).

What all share (test): ELISA
Assay [1] has as its target T1, recombinant EBV gp350 ectodomain (aa 4–863) (Epstein-Barr virus, strain  …, UniProt P03200-1).
The target of assay [2] is T2, Pep-8 (gp350 aa 142–161) (Epstein-Barr virus, strain B95-8).
T2 chain: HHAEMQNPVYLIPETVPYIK

For assay [3], the target named is T1, recombinant EBV gp350 ectodomain (aa …). The source holds these as a separate data set.

Like-named read-outs stand apart in the source and are kept apart here.

T1 sequence (P03200 4-863): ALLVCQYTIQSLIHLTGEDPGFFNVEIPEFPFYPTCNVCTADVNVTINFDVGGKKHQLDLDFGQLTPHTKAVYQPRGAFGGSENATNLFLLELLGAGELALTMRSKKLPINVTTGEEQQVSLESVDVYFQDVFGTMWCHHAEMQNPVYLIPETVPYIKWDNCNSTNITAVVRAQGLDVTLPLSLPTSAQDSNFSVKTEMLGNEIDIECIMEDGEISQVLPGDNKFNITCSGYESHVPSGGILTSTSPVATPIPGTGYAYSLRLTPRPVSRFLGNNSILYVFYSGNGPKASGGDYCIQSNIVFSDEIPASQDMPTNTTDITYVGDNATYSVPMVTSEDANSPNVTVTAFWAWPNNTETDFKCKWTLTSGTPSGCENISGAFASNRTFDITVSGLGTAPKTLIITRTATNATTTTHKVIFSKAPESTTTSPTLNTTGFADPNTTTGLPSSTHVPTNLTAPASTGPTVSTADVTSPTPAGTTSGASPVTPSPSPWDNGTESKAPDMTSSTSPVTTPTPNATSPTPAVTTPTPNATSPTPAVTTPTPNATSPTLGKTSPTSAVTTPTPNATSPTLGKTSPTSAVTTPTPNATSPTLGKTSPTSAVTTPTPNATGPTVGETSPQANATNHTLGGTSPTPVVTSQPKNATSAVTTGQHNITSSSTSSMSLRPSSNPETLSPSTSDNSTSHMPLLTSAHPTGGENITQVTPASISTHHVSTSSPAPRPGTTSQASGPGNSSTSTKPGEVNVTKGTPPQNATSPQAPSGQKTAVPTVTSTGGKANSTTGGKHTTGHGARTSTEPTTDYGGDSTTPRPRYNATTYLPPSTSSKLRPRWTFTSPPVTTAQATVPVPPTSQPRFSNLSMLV

B1: HB14 (antibody, V domains shown)
VH: SGAELVRPGASVNLSCKALGYTFTDYEMHWVKQTPVYGLEWIGTIHPRRGGTAYNQRFKGKAALTADKSSSTAYMELSSLTSEDSAVYYCARYGYPWYFDVWGAGTTVTVSS
VL: SLPVSLGDQASISCRSSQSIVHDNGNTYLEWYLQKPGQSPKLLIYKVSNRFSGVLDKFSGSGSGTDFTLKISRVEAEDLGIYYCFQGSHVPPTFGGGTKLEIK
Turning to B1, in assay [1], the binding result is listed as “binds”.

B2: HB22 (antibody, V domains shown)
VH: GLVAPSQSLSITCTVSGFSLTNYGIHWVRQPPGKGLEWLVVIWSDGSTIYNSALKSRLSISKDNSKSQVFLKMNSLQTDDTAMYYCARNYYGNSYPAWFAYWGQGTLVTVSA
VL: SLPVSLGDQASISCRSSQSIVHSNGNTYLEWYLQKPGQSPKLLIYKVSNRFSGVPDRFSGSGSGTDFTLRISRVEAEDLGVYYCFQGSHVPWTFGGGTKLEIK
Take B2: in assay [1], the binding result is “binds”.

B3: HB5 (antibody, V domains shown)
VH: ELVRPGASVKISCKAFGYTFTNHNINWVKQRPGQGLDWIGYINPYNDYTSYNQKFKGKATLTVDKSSNTAYMELSSLTSEDSAVYYCARSEGWLRRGAWFAYWGQGTLVTVSA
VL: ILSVSPGERVSFSCRASQSIGTSIHWYQQRTNDSPRLLIKYASESISGIPPRFSGSGSGTDFTLSINSVESEDIADYHCQQSNSWPMLTFGAGTKLELK
B3: in assay [2], the binding result is listed as “binds”.

B4: HB8 (antibody, V domains shown)
VH: ELKKPGETVKISCKASGYSFTNYGMNWVKQAPGKGLKWMGWINTYTGEPTYADDFKGRFAFSLETSASTAFLQINNLKNEDTATYLCARYYYGSVYSAWFAYWGQGTLVTVSA
VL: LSLPVSLGDQASISCRSSQSIVHSNGNTYLEWYLQKAGQSPKLLIYKVSNRFSGVPDRFGGSGSGTDFTLKISRVEAEDLGVYYCFQGSHVPYTFGGGTKLEIK
Take B4: in assay [1], the binding result is on record as “binds”.

B5: HB9 (antibody, V domains shown)
VH: GGLVKPGGSLKLSCAASGFTFSSYTMSWVRQTPEKRLEWVATISSGGSYIYYPDSVKGRFTISRDNAKNTLYLQMSSLKSEDTAIYYCTREDFYYGSSYGFFDVWGAGTTVTVSS
VL: LSLPVSLGDQASISCRSSQSIVHSNGNTYLEWYLQKAGQSPKLLIYKVSNRFSGVPDRFGGSGSGTDFTLKISRVEAEDLGVYYCFQGSHVPYTFGGGTKLEIK
In the case of B5, the binding result in assay [1] was “binds”.

B6: HB17 (antibody, V domains shown)
VH: ELVIPGASVKVSCKASGYTFTSYWIHWVKQWPGQGLEWIGEINPNNGHTNYNEKFKSKATLTVDKSSSTAYMQLSSLTSEDSAVYYCARNLFYYSRPDYWGQGTSVTVSS
VL: SLSASLGDRVTISCRASQDIGNYLNWYQQKPDGTIKLLIYYTSRLHSGVPSRFSGSGSGTDYSLTISNLEEEDIATYFCQQGNTLPPTFGGGTKLEIK
In the case of B6, the binding result in assay [1] is given as “binds”.

B7: HB20 (antibody, V domains shown)
VH: ELVKPGASVKLSCKASGYTFTSYWIQWVKQRPGQGLEWIGEINPTNGHTNYNEKFKTKATLTVDKSSSTAYMRLSSLTSEDSAVYYCARNLYYYGRPDYWGQGTSVTVSS
VL: SLSASLGDRVTISCRASQDIGNYLNWYQQKPDGTVKLLIYYTSRLHSGVPSRFSGSGSGTDYSLTISNLEQEDIATYFCQQGNALPPTFGGGTKLEIK
Turning to B7, the binding result in assay [2] is reported as “binds”.

B8: HB3 (antibody, V domains shown)
VH: ELVRPGASVKLSCKASGYTFASYWMQWVKQWPGQGLEWIGEINPNNGHTNYNERFKNKASLTVDKSSSTAYMQLSSLTSEDSAVYYCARNLYYYGRPDYWGQGTSVTVSS
VL: SLSASLGDRVTISCRASQDIGNYLNWYQQKPDGTIKLLIYYTSRLHSGVPSRFSGSGSGTDYSLTISNLEEEDIATYFCQQGNTLPPTFGGGTKLEIK
Regarding B8, the binding result in assay [1] is listed as “binds”.

B9: HB10 (antibody, V domains shown)
VH: ELVRPGASVKLSCKASGYTFTSYWMHWVKQWPGQGPEWIGEINPSNGHTNYNERFKNKATLTVDKSSSTAYMQLSSLTSEDSAVYYCARNLYYYGRPDYWGQGTSVTVSS
VL: SLSASLGDRVTISCRASQDIGNYLNWYQQKPDGTVKLLIYYTSRLHSGVPSRFSGSGSGTDYSLTISNLEEEDIATYFCQQGNTLPPTFGGGTKLEIK
Turning to B9, the binding result in assay [1] is “binds”.

B10: murine 72A1 (m72A1) (antibody, V domains shown)
VH: EVQLQQSGPELVKPGTSMKISCKASGSSFTDYTMNWMKQSHGKNLEWIGLINPYNGGTRYNQKFKGKATLTLDKSSSTAYMEVLSLTSEDSAVYYCAGGLRRVNWFAYWGQGTLVSVSA
VL: QAVLTQESALTTSPGETVTLTCRSSTGAVTTSNYANWVQEKPDHLFTGLIGGTNNRVPGVPARFSGSLIGDKAALTITGAQTEDEAIYFCVLWHSNHWVFGGGTKLTVL
Take B10: in assay [2], the binding result is recorded as “binds”.

B11: HB2 (antibody, V domains shown)
VH: ELKKPGETVKISCKASGYTFTAYSMHWVKLTPGKGLKWMGWINTKTGEPTYADDFKGRFAFSLETSASTAYLQINNLKNEDTATYFCAPYGYALDYWGQGTSVTVSS
VL: ILSASPGEKVTMTCRATSSVNYMHWYQQKPGSSPKPWIYATSNLASGVPARFSGSGSGTSYSLTISRVEAEDAATYYCQQWSSNPPTFGAGTKLELK
Regarding B11, the binding result in assay [1] was “binds”.

B12: HB6 (antibody, V domains shown)
VH: ELRKPGETVKISCKASGYTFTDYSMHWVKQTPGKGLKWMGWINTRTGEPRYADDFKGRFAFSLETSASTAYLQINNLKNEDTATYFCAPYGYALDYWGQGTSVTVSS
VL: ILSASPGEKVTMTCRATSSVNYMHWYQQKPGSSPKPWIYATSNLASGVPARFSGSGSGTSYSLTISRVEAEDAATYYCQQWSSNPPTFGAGTKLELK
For B12, the binding result in assay [1] was “binds”.

B13: HB7 (antibody, V domains shown)
VH: ELVRPGASVKLSCKALGYTFTDYEMHWVKQTPVHGLEWIGTISPGRSGTAYNQKFKGKATLTADKSSRTAYMELNSLTSEDSAVYYCSRYGHPSYLDVWGAGTTVTVSS
VL: FMSTSVGDRVNITCKASQSVGNAVAWFQQKPGQSPKLLIYSASNRYTGIPDRFTGSGSGTDFTLTCNNMQSEDLADYFCQQYSSYPLTFGAGTKLELK
Take B13: in assay [1], the binding result is on record as “binds”.

B14: HB11 (antibody, V domains shown)
VH: SLVKPSQTLSLTCSVTGDSITSGFWNWIRKFPGNKLEYMGYISYSGSTYYNPSLKSRISITRDTSKNQYYLQLNSVTTEDTATYYCARGNGGNYDWYFDVWGAGTTVTVSS
VL: IMSASLGEKVTMSCRASSSVNFMNWYQQKSDDSPKLLIYYISNLAPGVPARFSGSGSGNSYSLTISGMEGEDAATYYCQQFTSSPSWTFGGGTKLEIK
In the case of B14, in assay [2], the binding result was “binds”.

B15: humanized 72A1 (h72A1) (antibody, V domains shown)
VH: EVQLVESGGGLVQPGGSLRLSCAASGSSFTDYTMNWMRQSPGKGLEWIGLINPYNGGTRYADSVKGRATLSLDKSKNTAYLQMNSLRAEDTAIYYCAGGLRRVNWFAYWGQGTLVTVSS
VL: DAQLTQSPILLSASVGDRVTITCRSSTGAVTTSNYANWVQERTNGSFRGLIGGTNNRVPGVPSRFSGSLSGDDATLTISSLQPEDEADYFCVLWHSNHWVFGAGTKVEIK
As for B15, the binding result in assay [3] and in assay [2] was “binds” throughout.
